Positions count from the first letter of the chain named. Names and notes keep the numbering of the source.

Here are results for 31 molecules from article PMC2709974 (Journal of molecular biology, 2009).

First the molecules themselves.
T1: IscR-C92A/C98A/C104A (clusterless) (Escherichia coli, UniProt P0AGK8 1-162, C92A;C98A;C104A)
T1 sequence: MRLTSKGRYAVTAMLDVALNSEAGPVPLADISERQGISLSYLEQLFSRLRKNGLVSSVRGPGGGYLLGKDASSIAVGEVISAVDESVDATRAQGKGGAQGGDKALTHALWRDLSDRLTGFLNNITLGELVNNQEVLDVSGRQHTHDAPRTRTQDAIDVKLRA

T2: IscR wild-type (as purified, about 60% [2Fe-2S] occupied) (Escherichia coli, UniProt P0AGK8 1-162)
T2 sequence: T1 sequence with A92C, A98C, A104C

B1: randomized hya site, labeled 30-mer (dsDNA)
DNA 1: ATCATCCGTCTTATGTTAATTATAATGGTG
DNA 2: CACCATTATAATTAACATAAGACGGATGAT
B2: wild-type IscR (as purified, 35% occupied with [2Fe-2S] cluster) (natural protein, Escherichia coli, UniProt P0AGK8 1-162, looked up)
chain: T1 sequence with A92C, A98C, A104C
B3: apo-IscR (generated from wild-type IscR by treatment with 2,2'-dipyridyl) (natural protein, Escherichia coli, UniProt P0AGK8 1-162, looked up)
chain: T1 sequence with A92C, A98C, A104C
B4: IscR-C92A/C98A/C104A (natural protein, Escherichia coli, UniProt P0AGK8 1-162, looked up)
chain: T1 sequence
B5: hyaA site, labeled 30-mer (dsDNA)
DNA 1: ATAAATCCACACAGTTTGTATTGTTTTGTG
DNA 2: CACAAAACAATACAAACTGTGTGGATTTAT
B6: hya -49 (dsDNA)
DNA 1: B5 DNA 1 with A9T
DNA 2: B5 DNA 2 with T22A
B7: hya -31 (dsDNA)
DNA 1: B5 DNA 1 with T27G
DNA 2: B5 DNA 2 with A4C
B8: hya -55 (A to C) (dsDNA)
DNA 1: B5 DNA 1 with A3C
DNA 2: B5 DNA 2 with T28G
B9: hya -34/33 (dsDNA)
DNA 1: B5 DNA 1 with T24A, T25A
DNA 2: B5 DNA 2 with A6T, A7T
B10: hya -46 (dsDNA)
DNA 1: B5 DNA 1 with C12T
DNA 2: B5 DNA 2 with G19A
B11: hya -36(T to C) (dsDNA)
DNA 1: B5 DNA 1 with T22C
DNA 2: B5 DNA 2 with A9G
B12: hya -44,-43 (dsDNA)
DNA 1: B5 DNA 1 with G14T, T15G
DNA 2: B5 DNA 2 with A16C, C17A
B13: hya -40 (dsDNA)
DNA 1: B5 DNA 1 with G18C
DNA 2: B5 DNA 2 with C13G
B14: hya -47 (dsDNA)
DNA 1: B5 DNA 1 with A11T
DNA 2: B5 DNA 2 with T20A
B15: Palindrome1 (dsDNA)
DNA 1: ATAAATACATACAGTTTGTATGTATTTGTG
DNA 2: CACAAATACATACAAACTGTATGTATTTAT
B16: hya -48(C to T) (dsDNA)
DNA 1: B5 DNA 1 with C10T
DNA 2: B5 DNA 2 with G21A
B17: hya -54,-48,-45,-37 (dsDNA)
DNA 1: ATATATCCAGACTGTTTGTAATGTTTTGTG
DNA 2: CACAAAACATTACAAACAGTCTGGATATAT
B18: hya -35 (dsDNA)
DNA 1: B5 DNA 1 with G23T
DNA 2: B5 DNA 2 with C8A
B19: hya -32,-30 (dsDNA)
DNA 1: B5 DNA 1 with T26A, G28C
DNA 2: B5 DNA 2 with C3G, A5T
B20: hya -44,-42,-41,-40 (dsDNA)
DNA 1: ATAAATCCACACATTGGTTATTGTTTTGTG
DNA 2: CACAAAACAATAACCAATGTGTGGATTTAT
B21: hya -51 (dsDNA)
DNA 1: B5 DNA 1 with C7G
DNA 2: B5 DNA 2 with G24C
B22: hya -53,-52 (dsDNA)
DNA 1: B5 DNA 1 with A5T, T6C
DNA 2: B5 DNA 2 with A25G, T26A
B23: hyaA competitor (dsDNA)
DNA 1: B5 DNA 1
DNA 2: B5 DNA 2
B24: Palindrome1-2 (dsDNA)
DNA 1: B15 DNA 1 with A7C, T23G
DNA 2: B15 DNA 2 with A8C, T24G
B25: hya -41 (dsDNA)
DNA 1: B5 DNA 1 with T17A
DNA 2: B5 DNA 2 with A14T
B26: hya -50(C to A) (dsDNA)
DNA 1: B5 DNA 1 with C8A
DNA 2: B5 DNA 2 with G23T
B27: hya -39 (dsDNA)
DNA 1: B5 DNA 1 with T19A
DNA 2: B5 DNA 2 with A12T
B28: hya -36(T to G) (dsDNA)
DNA 1: B5 DNA 1 with T22G
DNA 2: B5 DNA 2 with A9C
B29: hya -36(T to A) (dsDNA)
DNA 1: B5 DNA 1 with T22A
DNA 2: B5 DNA 2 with A9T
B30: hya -42 (dsDNA)
DNA 1: B5 DNA 1 with T16A
DNA 2: B5 DNA 2 with A15T
B31: hya -42,-41 (dsDNA)
DNA 1: B5 DNA 1 with T16G, T17G
DNA 2: B20 DNA 2 with A13C, A17C

The first data set concerns the target T1, IscR-C92A/C98A/C104A (clusterless). Briefly: fluorescence anisotropy. (Fluorescence polarisation rises when a labelled molecule tumbles more slowly, as on binding a larger partner.)
As for B1, the binding result is on record as “no binding”.

The next data set concerns the molecule itself. Briefly: SEC. For orientation: Size exclusion chromatography separates by hydrodynamic size, large species first.
Consider B2, for which the stoichiometry N (usually the number of molecules, sites or subunits per partner or assembly) was found to be 2.

On to B3, for which the “stoichiometry N” value is 2.

Another data set deals with the molecule itself. Briefly: AUC.
As to B4, the “stoichiometry N” value is 2.

The target in a further data set is T2, IscR wild-type (as purified, about 60% …). Briefly: fluorescence anisotropy.
As for B5, binding was characterised by a dissociation constant (Kd) of 34 ± 2 nM.

A further data set addresses T1, IscR-C92A/C98A/C104A (clusterless). Briefly: fluorescence anisotropy. This is another data set of the same source.
Consider B5, for which the affinity, expressed as Kd, was 44 ± 3 nM.

The target of a further data set is T2, IscR wild-type (as purified, about 60% …). Briefly: fluorescence anisotropy. The source holds these as a separate data set.
Consider B1, for which the binding result is listed as “no binding”.

The next data set has as its target T1, IscR-C92A/C98A/C104A (clusterless). Briefly: competition.
Turning to B6, the 50% inhibitory concentration (IC50) (usually the concentration that inhibits the measured activity by half) came to 44 nM.

The molecule B7 registered an IC50 of 263 nM.

Molecule B8 gave an IC50 of 394 nM.

Turning to B9, the IC50 is 39 nM.

For the molecule B10, the IC50 was 37 nM.

For the molecule B11, the IC50 amounted to 134 nM.

As to B12, the IC50 was 89 nM.

For the molecule B13, the half-inhibitory concentration (IC50) came out at 39 nM.

As to B14, the IC50 was 190 nM.

Molecule B15 registered an IC50 of 202 nM.

For B16, the IC50 was 48 nM.

Take B17: the IC50 is 80 nM.

On to B18, for which the IC50 came out at 505 nM.

For B19, the IC50 came out at 18 nM.

B20 displayed an IC50 of 785 nM.

As to B21, the IC50 came out at 400 nM.

The molecule B22 yielded a concentration for half-maximal inhibition (IC50) of 33 nM.

B23: the IC50 came to 29 nM.

Molecule B24 registered an IC50 of roughly 10 nM.

B25: the IC50 was determined as 34 nM.

The molecule B26 showed an IC50 of 268 nM.

The molecule B27 had an IC50 of 199 nM.

In the case of B28, the IC50 was 16 nM.

As for B29, the half-maximal inhibitory concentration (IC50) was 52 nM.

B30: the 50% inhibitory concentration (IC50) was 73 nM.

Regarding B31, the IC50 was 300 nM.
